Biological target: DR5-KF fusion protein (human, UniProt O14763 54-183; P01834 1-107, limits assumed)
Assay: sandwich ELISA for simultaneous binding: anti-DR4 mAb coat, DR4-hFc 0.5 µg/ml, test mAb, DR5-KF 0.5 µg/ml, HRP-anti-Flag M2
Procedure: Each step of each ELISA assay described in this patent application was performed by room temperature incubation with the appropriate reagent for 1 hour, except the initial plate coating step was done overnight at 4° C. followed by blocking with 2% BSA for 1 hr. Between each step, plates were washed 3 times in PBS containing 0.05% Tween 20. Data points were generally in duplicate or triplicate; there was generally little variability between replicate data points.
Bound DR5-KF was detected with HRP-anti-Flag M2 (Sigma) and substrate.

Chain of DR5-KF fusion protein (O14763 other isoform, or with tags, fused parts or gaps limits assumed): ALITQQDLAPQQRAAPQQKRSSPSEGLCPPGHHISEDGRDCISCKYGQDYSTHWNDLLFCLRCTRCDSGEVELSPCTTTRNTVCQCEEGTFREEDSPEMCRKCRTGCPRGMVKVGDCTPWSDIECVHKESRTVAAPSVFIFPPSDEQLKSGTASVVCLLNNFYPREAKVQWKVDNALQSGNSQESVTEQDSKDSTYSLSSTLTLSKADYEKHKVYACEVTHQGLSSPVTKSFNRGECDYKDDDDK

binding result: binds
B1: B-4H6/3H3-hFc** (bispecific antibody, human IgG1, kappa)
heavy: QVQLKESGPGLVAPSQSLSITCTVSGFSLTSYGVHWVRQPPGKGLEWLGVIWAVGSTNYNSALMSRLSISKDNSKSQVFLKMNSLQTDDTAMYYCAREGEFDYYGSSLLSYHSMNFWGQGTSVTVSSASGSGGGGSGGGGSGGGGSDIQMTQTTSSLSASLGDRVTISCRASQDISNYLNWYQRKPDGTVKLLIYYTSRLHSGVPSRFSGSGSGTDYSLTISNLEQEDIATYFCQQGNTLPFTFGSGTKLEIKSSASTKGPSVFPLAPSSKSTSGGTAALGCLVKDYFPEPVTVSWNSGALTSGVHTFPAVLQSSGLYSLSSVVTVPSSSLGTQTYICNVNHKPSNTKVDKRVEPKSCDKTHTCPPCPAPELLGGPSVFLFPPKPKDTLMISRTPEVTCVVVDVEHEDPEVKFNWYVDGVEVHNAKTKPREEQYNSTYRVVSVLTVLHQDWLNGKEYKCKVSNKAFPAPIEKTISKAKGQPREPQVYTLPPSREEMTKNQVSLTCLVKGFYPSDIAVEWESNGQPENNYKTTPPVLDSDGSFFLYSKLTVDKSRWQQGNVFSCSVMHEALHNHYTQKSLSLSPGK
light: EVQLQQSGPELVKPGASVKMSCKASGYTFTSYVMHWVKQKPGQGLEWIGYIIPYNDGTKYNEKFKGKATLTSDKSSSTAYMELSRLTSEDSAVYYCARGGINYDYLYYFDYWGQGTTLTVSSASGSGGGGSGGGGSGGGGSDVVMTQIPLSLPVSLGDQASISCRSSQSLVHSNGNTYLHWYLQKPGQSPKLLIYKVSNRFSGVPDRFSGSGSGTDFTLKISRVEAEDLGVYFCSQSTHVPHTFGGGTKLEIKRTVAAPSVFIFPPSDEQLKSGTASVVCLLNNFYPREAKVQWKVDNALQSGNSQESVTEQDSKDSTYSLSSTLTLSKADYEKHKVYACEVTHQGLSSPVTKSFNRGEC
notes: Bs(scFv)4-IgG format; also called bispecific B-4H6/3H3-hFc** mAb

Source: patent US20190062443A1 (GALAXY BIOTECH, published 2019)
